According to patent publication KR20190006154A:

Target: FMDV O1 Manisa (Foot and Mouth Disease Virus serotype O)
Experiment: indirect ELISA, inactivated FMDV coated, hybridoma supernatant

B1: 4B14 (antibody, V domains shown)
VH: EVQLQQSGPEVVKPGASVKMSCKASGYSFTGYYMNWVKQSHVKSLEWIGRINPDNGATNYNQNVKDKASLTVDKSSNTAYMELHSLTSEDSAVYYCARWLLSPYVMDYWGQGTSVTVSS
VL: DIVLTQSPASLAVSLGQRATISYRASKSVSTSGYSYMHWNQQKPGQPPRLLIYLVSNLESGVPARFSGSGSGTDFTLNIHPVEEEDAATYYCQHIRELTRSEGGPSW
- O.D (450nm) in ELISA screening plate: 2.31 O.D (450nm)

B2: 7F32 (antibody, V domains shown)
VH: EVQLVESGGDLVKPGGSLKLSCAASGFTFSNYGMSWGRQTPDKRLEWVATISSGGSYTYYPDSLKGRFTISRDNAKNTLYLQMTSLKSEDTAMYYCSSPYYDSSYDYSLDYWGQGTSVTVSS
VL: B1 VL
- O.D (450nm) in ELISA screening plate: 0.91 O.D (450nm)
